Columns and labels:
TRF1 = experiment: EMSA
TRF2 = experiment: EMSA

## Cy3 telomeric PCR product (255 bp)
TRF1
  K half: 152 nM
TRF2
  K half: 111 nM

Reference: article PMC4151696
